In patent publication US10941182 (Amgen, dated 2021):
Starred links: 1 amine or outer side, 2 acyl side, 3 side chain; linkers in the order of their positions; H or OH if unused. Non-standard residues stand in square brackets, D forms with d. Primed or numbered codes have the meaning given here. *: point of attachment. AC4Abu = α-carboxy-4-aminobutyric acid, O=C(C(CCN[*:1])C(=O)[*:3])[*:2]; Oic = O=C(O)[C@@H]1C[C@@H]2CCCC[C@@H]2N1; Phe(4-Cl) = N[C@@H](Cc1ccc(Cl)cc1)C(=O)O; γGlu = O=C(O)[C@H](CCC(=O)[*:2])N[*:1]; NMeR = CN[C@@H](CCCNC(=N)N)C(=O)O; Tridecanoyl = CCCCCCCCCCCCC(=O)*; Cha = N[C@@H](CC1CCCCC1)C(=O)O; Tle = CC(C)(C)[C@H](N)C(=O)O; αMeP = C[C@@]1(C(=O)O)CCCN1; β3hP = O=C(O)C[C@@H]1CCCN1; Nle = CCCC[C@H](N)C(=O)O; Pip′ = not defined here; Deg = CCC(N)(CC)C(=O)O; AEEA = NCCOCCOCC(=O)O; Aib = CC(C)(N)C(=O)O

B1: Apelin polypeptide SEQ ID NO: 549 (peptide)
peptide: Tridecanoyl-[γGlu][AEEA][AEEA][dQ]RP[NMeR][Cha]SHKG[Oic][Nle][Deg][Phe(4-Cl)]-OH
SMILES: CCCCCCCCCCCCC(=O)N[C@@H](CCC(=O)NCCOCCOCC(=O)NCCOCCOCC(=O)N[C@H](CCC(N)=O)C(=O)N[C@@H](CCCNC(=N)N)C(=O)N1CCC[C@H]1C(=O)N(C)[C@@H](CCCNC(=N)N)C(=O)N[C@@H](CC1CCCCC1)C(=O)N[C@@H](CO)C(=O)N[C@@H](Cc1c[nH]cn1)C(=O)N[C@@H](CCCCN)C(=O)NCC(=O)N1[C@H](C(=O)N[C@@H](CCCC)C(=O)NC(CC)(CC)C(=O)N[C@@H](Cc2ccc(Cl)cc2)C(=O)O)C[C@@H]2CCCC[C@@H]21)C(=O)O
B2: Apelin polypeptide SEQ ID NO: 413 (peptide)
peptide: Tridecanoyl-[AC4Abu][AEEA][AEEA]QRP[NMeR][Cha]SHKG[Oic][Tle]P[Phe(4-Cl)]-OH
SMILES: CCCCCCCCCCCCC(=O)NCCC(C(=O)O)C(=O)NCCOCCOCC(=O)NCCOCCOCC(=O)N[C@@H](CCC(N)=O)C(=O)N[C@@H](CCCNC(=N)N)C(=O)N1CCC[C@H]1C(=O)N(C)[C@@H](CCCNC(=N)N)C(=O)N[C@@H](CC1CCCCC1)C(=O)N[C@@H](CO)C(=O)N[C@@H](Cc1c[nH]cn1)C(=O)N[C@@H](CCCCN)C(=O)NCC(=O)N1[C@H](C(=O)N[C@H](C(=O)N2CCC[C@H]2C(=O)N[C@@H](Cc2ccc(Cl)cc2)C(=O)O)C(C)(C)C)C[C@@H]2CCCC[C@@H]21
B3: Apelin polypeptide SEQ ID NO: 361 (peptide)
peptide: Tridecanoyl-[γGlu][AEEA][AEEA]QRP[NMeR][Cha]SHKGP[Nle]P[Phe(4-Cl)]-OH
SMILES: CCCCCCCCCCCCC(=O)N[C@@H](CCC(=O)NCCOCCOCC(=O)NCCOCCOCC(=O)N[C@@H](CCC(N)=O)C(=O)N[C@@H](CCCNC(=N)N)C(=O)N1CCC[C@H]1C(=O)N(C)[C@@H](CCCNC(=N)N)C(=O)N[C@@H](CC1CCCCC1)C(=O)N[C@@H](CO)C(=O)N[C@@H](Cc1c[nH]cn1)C(=O)N[C@@H](CCCCN)C(=O)NCC(=O)N1CCC[C@H]1C(=O)N[C@@H](CCCC)C(=O)N1CCC[C@H]1C(=O)N[C@@H](Cc1ccc(Cl)cc1)C(=O)O)C(=O)O
B4: Apelin polypeptide SEQ ID NO: 542 (peptide)
peptide: Tridecanoyl-[γGlu][AEEA][AEEA][dQ]RP[NMeR][Cha]SHKG[Oic][Nle][β3hP][Phe(4-Cl)]-OH
SMILES: CCCCCCCCCCCCC(=O)N[C@@H](CCC(=O)NCCOCCOCC(=O)NCCOCCOCC(=O)N[C@H](CCC(N)=O)C(=O)N[C@@H](CCCNC(=N)N)C(=O)N1CCC[C@H]1C(=O)N(C)[C@@H](CCCNC(=N)N)C(=O)N[C@@H](CC1CCCCC1)C(=O)N[C@@H](CO)C(=O)N[C@@H](Cc1c[nH]cn1)C(=O)N[C@@H](CCCCN)C(=O)NCC(=O)N1[C@H](C(=O)N[C@@H](CCCC)C(=O)N2CCC[C@H]2CC(=O)N[C@@H](Cc2ccc(Cl)cc2)C(=O)O)C[C@@H]2CCCC[C@@H]21)C(=O)O
B5: Apelin polypeptide SEQ ID NO: 437 (peptide)
peptide: Tridecanoyl-[γGlu][AEEA][AEEA]QRP[NMeR][Cha]SVKG[Oic][Nle]P[Phe(4-Cl)]-OH
SMILES: CCCCCCCCCCCCC(=O)N[C@@H](CCC(=O)NCCOCCOCC(=O)NCCOCCOCC(=O)N[C@@H](CCC(N)=O)C(=O)N[C@@H](CCCNC(=N)N)C(=O)N1CCC[C@H]1C(=O)N(C)[C@@H](CCCNC(=N)N)C(=O)N[C@@H](CC1CCCCC1)C(=O)N[C@@H](CO)C(=O)N[C@H](C(=O)N[C@@H](CCCCN)C(=O)NCC(=O)N1[C@H](C(=O)N[C@@H](CCCC)C(=O)N2CCC[C@H]2C(=O)N[C@@H](Cc2ccc(Cl)cc2)C(=O)O)C[C@@H]2CCCC[C@@H]21)C(C)C)C(=O)O
B6: Apelin polypeptide SEQ ID NO: 487 (peptide)
peptide: Tridecanoyl-[γGlu][AEEA][AEEA]QRP[NMeR][Cha]SHKG[Oic][Nle][β3hP][Phe(4-Cl)]-OH
SMILES: CCCCCCCCCCCCC(=O)N[C@@H](CCC(=O)NCCOCCOCC(=O)NCCOCCOCC(=O)N[C@@H](CCC(N)=O)C(=O)N[C@@H](CCCNC(=N)N)C(=O)N1CCC[C@H]1C(=O)N(C)[C@@H](CCCNC(=N)N)C(=O)N[C@@H](CC1CCCCC1)C(=O)N[C@@H](CO)C(=O)N[C@@H](Cc1c[nH]cn1)C(=O)N[C@@H](CCCCN)C(=O)NCC(=O)N1[C@H](C(=O)N[C@@H](CCCC)C(=O)N2CCC[C@H]2CC(=O)N[C@@H](Cc2ccc(Cl)cc2)C(=O)O)C[C@@H]2CCCC[C@@H]21)C(=O)O
B7: Apelin polypeptide SEQ ID NO: 541 (peptide)
peptide: Tridecanoyl-[γGlu][AEEA][AEEA][dQ]RP[NMeR][Cha]SHKG[Oic][Nle][αMeP][Phe(4-Cl)]-OH
SMILES: CCCCCCCCCCCCC(=O)N[C@@H](CCC(=O)NCCOCCOCC(=O)NCCOCCOCC(=O)N[C@H](CCC(N)=O)C(=O)N[C@@H](CCCNC(=N)N)C(=O)N1CCC[C@H]1C(=O)N(C)[C@@H](CCCNC(=N)N)C(=O)N[C@@H](CC1CCCCC1)C(=O)N[C@@H](CO)C(=O)N[C@@H](Cc1c[nH]cn1)C(=O)N[C@@H](CCCCN)C(=O)NCC(=O)N1[C@H](C(=O)N[C@@H](CCCC)C(=O)N2CCC[C@@]2(C)C(=O)N[C@@H](Cc2ccc(Cl)cc2)C(=O)O)C[C@@H]2CCCC[C@@H]21)C(=O)O

Biological target: T1, human APJ receptor (human, UniProt P35414 1-380)
T1 sequence (looked up): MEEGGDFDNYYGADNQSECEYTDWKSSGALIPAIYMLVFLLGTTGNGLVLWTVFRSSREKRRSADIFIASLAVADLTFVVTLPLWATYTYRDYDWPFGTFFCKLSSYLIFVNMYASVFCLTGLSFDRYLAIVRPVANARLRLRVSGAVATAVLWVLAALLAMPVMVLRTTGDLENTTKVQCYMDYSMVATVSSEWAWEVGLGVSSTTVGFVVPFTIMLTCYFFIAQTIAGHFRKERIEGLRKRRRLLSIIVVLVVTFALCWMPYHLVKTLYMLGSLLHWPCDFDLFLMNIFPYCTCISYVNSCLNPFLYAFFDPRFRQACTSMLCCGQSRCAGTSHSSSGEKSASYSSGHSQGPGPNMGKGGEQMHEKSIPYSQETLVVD
Assay: cell-based or functional assay

EC50 Human APJ Receptor (GTPγS assay) [nM] | Binder
4.29 | Tridecanoyl-[γGlu][AEEA][AEEA]QRP[NMeR][Cha]SHKG[Oic][Nle][Pip′][Phe(4-Cl)]-OH [Apelin polypeptide SEQ ID NO: 445]
1.2 | B1
1.53 | B2
0.308 | B3
0.0236 | Tridecanoyl-[γGlu][AEEA][AEEA][dQ]RP[NMeR][Cha]SHKG[Pip′][Nle][Aib][Phe(4-Cl)]-OH [Apelin polypeptide SEQ ID NO: 499]
5.19 | B4
0.663 | B5
1.83 | B6
0.938 | B7
2.42 | Tridecanoyl-[γGlu][AEEA][AEEA][dQ]RP[NMeR][Cha]SHKG[Pip′][Nle][β3hP][Phe(4-Cl)]-OH [Apelin polypeptide SEQ ID NO: 544]

Biological target: T2, rat APJ receptor (rat, UniProt Q9JHG3 1-377)
T2 sequence (looked up): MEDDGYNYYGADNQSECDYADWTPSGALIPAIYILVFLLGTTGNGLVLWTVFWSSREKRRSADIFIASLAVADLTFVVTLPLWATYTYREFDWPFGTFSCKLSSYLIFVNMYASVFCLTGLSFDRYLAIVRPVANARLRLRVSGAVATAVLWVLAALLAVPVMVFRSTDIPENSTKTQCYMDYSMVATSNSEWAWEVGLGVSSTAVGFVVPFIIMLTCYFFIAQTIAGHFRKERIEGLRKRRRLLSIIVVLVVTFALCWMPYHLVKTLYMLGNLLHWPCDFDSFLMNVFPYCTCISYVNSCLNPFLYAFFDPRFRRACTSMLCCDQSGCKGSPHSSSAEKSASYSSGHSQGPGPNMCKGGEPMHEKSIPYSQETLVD
Assay: cell-based or functional assay

EC50 Rat APJ Receptor (GTPγS assay) [nM] | Binder
4.71 | Tridecanoyl-[γGlu][AEEA][AEEA]QRP[NMeR][Cha]SHKG[Oic][Nle][Pip′][Phe(4-Cl)]-OH [Apelin polypeptide SEQ ID NO: 445]
4 | B1
1.54 | B2
0.086 | B3
0.0852 | Tridecanoyl-[γGlu][AEEA][AEEA][dQ]RP[NMeR][Cha]SHKG[Pip′][Nle][Aib][Phe(4-Cl)]-OH [Apelin polypeptide SEQ ID NO: 499]
16.1 | B4
0.725 | B5
8.19 | B6
1.98 | B7
5.61 | Tridecanoyl-[γGlu][AEEA][AEEA][dQ]RP[NMeR][Cha]SHKG[Pip′][Nle][β3hP][Phe(4-Cl)]-OH [Apelin polypeptide SEQ ID NO: 544]
